The results in this text go back to patent US20240092891A1 (SANYOU BIOPHARMACEUTICALS, published 2024).

Broadly, the EC50 is the concentration giving half of the maximal effect. Read a high EC50 as lower potency in that assay.

Test [1] deals with T1, human CLDN18.1 (human, UniProt P56856 1-261).
T1 construct: Overexpressed on HEK293 cells; also called human CLDN18.1-HEK293
Briefly: flow cytometry with phage supernatant, anti-M13 antibody, on human CLDN18.1-HEK293 cells. In general terms: Flow cytometry measures light scatter and fluorescence of single cells or particles in a stream.
Text: Firstly, 1×10⁵ human CLDN18.2-HEK293T and human CLDN18.1-HEK293 cells were taken, respectively and centrifuged at a low speed of 500 g, and the supernatant was removed.

Test [2] concerns the target T2, human CLDN18.2 (human).
T2 construct: also called CLD18A2; huCLDN18.2
Briefly: flow cytometry on human CLDN18.2-HEK293T cells.

In test [3] the target is T2, human CLDN18.2. Briefly: cell-based or functional assay.
The target of test [4] is T1, human CLDN18.1. The test is described as follows: flow cytometry, binding intensity on human CLDN18.1-HEK293 cells at different concentrations.
Experimental: Therefore, antibodies (including a high concentration of 100 μg/mL) at different concentrations were used to be incubated with human CLDN18.1-HEK293 in vitro in this example. The method was as described in section 1.3.1, wherein antibodies at different concentrations were incubated with target cells human CLDN18.1-HEK293 at 4° C. for 1 h. Next, the resulting cultures were rinsed three times with the above-mentioned FACS buffer. 0.5 μg (0.5 mg/ml) of PE-labeled goat anti-human IgG Fc antibody (Abcam, ab98596) was added, and the resulting mixture was incubated at 4° C. for 1 h, and then rinsed three times with the FACS buffer.

Substitutions are numbered along the chain they refer to.

T1 sequence (P56856 whole entry): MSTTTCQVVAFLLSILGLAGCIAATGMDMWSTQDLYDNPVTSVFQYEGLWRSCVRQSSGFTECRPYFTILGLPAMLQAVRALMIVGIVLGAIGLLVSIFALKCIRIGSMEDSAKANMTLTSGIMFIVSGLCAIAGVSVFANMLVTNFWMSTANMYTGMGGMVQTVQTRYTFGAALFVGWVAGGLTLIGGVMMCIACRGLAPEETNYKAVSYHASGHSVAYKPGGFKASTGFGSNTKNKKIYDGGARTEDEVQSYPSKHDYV

B1: clone NA7-S, VHH displayed on phage (VHH)
VHH: EVQVQESGGGLVQPGGSLRLSCAASGSFFRIVAMGWYRQAPGSQRELVATITRGGSTYYADSMKGRSTISRDNAKNTVYLQMNSLKPEDTAVYYCNVRVEVPFMQPNDYWGHGTQVTVSS
notes: also called NA7-S (phage supernatant); candidate nanobody NA7-S
In the case of B1, in test [1], the binding result is on record as “no binding”.

B2: humanized antibody NA7-S-H2 (Fc fusion)
chain: B1 VHH with V4L, Q5V, S43K, Q44G, H112Q, Q115L
notes: not shown: Fc part implied (detected with anti-human IgG Fc; parent molecule in CDC/ADCC)
B2: in test [2], a half-maximal effect (EC50) was put at 0.482 µg/mL and the “binding intensity (MFI) at the highest concentration” value came out at 184000 MFI.

B3: IMAB362 antibody (antibody, V domains shown)
VH: QVQLQQPGAELVRPGASVKLSCKASGYTFTSYWINWVKQRPGQGLEWIGNIYPSDSYTNYNQKFKDKATLTVDKSSSTAYMQLSSPTSEDSAVYYCTRSWRGNSFDYWGQGTTLTVSS
VL: DIVMTQSPSSLTVTAGEKVTMSCKSSQSLLNSGNQKNYLTWYQQKPGQPPKLLIYWASTRESGVPDRFTGSGSGTDFTLTISSVQAEDLAVYYCQNDYSYPFTFGSGTKLEIKR
As for B3, in test [3], the “EC50 of ADCC cell killing effect (LDH release, human PBMC) on human CLDN18.2-HEK293T cells, run with NA7-S” value turned out to be 0.0862 nM; the “EC50 of ADCC cell killing effect (LDH release, human PBMC) on human CLDN18.2-HEK293T cells, run with NA8-S” value stood at 0.0636 nM; the “EC50 of CDC cell killing effect (MTS) on human CLDN18.2-HEK293T cells, run with NA4-S” value stood at 0.613 nM; the “EC50 of CDC cell killing effect (MTS) on human CLDN18.2-HEK293T cells, run with NA7-S” value was 0.628 nM. In test [3], the “EC50 of CDC cell killing effect (MTS) on human CLDN18.2-HEK293T cells, run with NA8-S” value was determined as 1.86 nM; the “EC50 of CDC cell killing effect (MTS) on human CLDN18.2-KATOIII tumor cells, run with NA7-S” value was 69.8 nM; the “EC50 of CDC cell killing effect (MTS) on human CLDN18.2-KATOIII tumor cells, run with NA8-S” value worked out at 1860 nM; the “IC50 of Fab-ZAP cell killing (endocytosis, MTS) on CLDN18.2-HEK293T cells, run with NA7-S” value was determined as 0.128 nM. In addition, the “IC50 of Fab-ZAP cell killing (endocytosis, MTS) on CLDN18.2-HEK293T cells, run with NA8-S” value in test [3] was found to be 0.136 nM.

B4: humanized antibody NA4-S-H7 (Fc fusion)
chain: EVQLVESGGGLVQPGGSLRLSCAASGSIFSINVMGWYRQAPGKQRELVAGISTGGTTRYADSVKGRFTISRDNAKNTLYLQMNSLRAEDTAVYYCNADLATATSWPVRYLEVWGQGTLVTVSS
notes: as for B2
Consider B4, for which, in test [2], the midpoint of the response, the EC50, lay at 0.877 µg/mL and the “binding intensity (MFI) at the highest concentration” value came out at 128000 MFI. For the same molecule, in test [4], the binding result is reported as “no binding (tested: 100 µg/mL)”.

B5: clone NA4-S, VHH displayed on phage (VHH)
VHH: B4 chain with L4V, V63A, L78V, R86K, A87P, S123A
notes: also called NA4-S (phage supernatant); candidate nanobody NA4-S
Consider B5, for which the binding result in test [1] is given as “no binding”.
